± gives the standard deviation of the averaged measurements.
What was measured:
Saccharomyces cerevisiae [1] = assay: protein stability index of tFT-peptide fusion (C-terminal peptide) (PSI (0-1 scale)); higher = more stable (slower turnover)
Description: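 MPS profiling in S. cerevisiae of the tFT-X12 degron library: putative degron peptides plus stable controls, 12 aa, fused to the C-terminus of a sfGFP-mCherry timer. Cells are FACS-sorted into 8 mCherry/sfGFP bins and deep-sequenced. PSI runs from 0 (unstable) to 1 (stable). Backgrounds are wild type, das1Δ and doa10Δ at 30 °C, and wild type, das1Δ, cdc34-1 and cdc53-1 at 37 °C; 2-3 technical replicates each.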

Saccharomyces cerevisiae [2] = assay: as above; conditions: genetic background: wild type; temperature: 30 C
[3] = genetic background: cdc34-1, temperature: 37 C
[4] = genetic background: cdc53-1, temperature: 37 C
[5] = genetic background: das1 deletion, temperature: 30 C
[6] = genetic background: das1 deletion, temperature: 37 C
[7] = genetic background: doa10 deletion, temperature: 30 C
[8] = genetic background: wild type, temperature: 30 C
[9] = genetic background: wild type, temperature: 37 C
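Note: PSI is a weighted mean of sequencing reads over stability bins, variants kept only with over 10 reads, mCherry proximal and sfGFP distal, peptide attached via GGGS linker.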

Sequence	protein stability index (Saccharomyces cerevisiae [1]; [3])	protein stability index (Saccharomyces cerevisiae [1]; [4])	protein stability index (Saccharomyces cerevisiae [1]; [5])	protein stability index (Saccharomyces cerevisiae [1]; [6])	protein stability index (Saccharomyces cerevisiae [1]; [7])	protein stability index (Saccharomyces cerevisiae [1]; [8])	protein stability index (Saccharomyces cerevisiae [1]; [9])	protein stability index (Saccharomyces cerevisiae [2])
PGSIGVVIAVRS	0.461 ± 0.019	0.512 ± 0.013	0.345 ± 0.044	0.574 ± 0.02	0.2863 ± 0.0007	0.363 ± 0.015	0.517 ± 0.0066	0.464 ± 0.0078
PGVWVVILRWWV	0.0876 ± 0.044	0.179 ± 0.011	0.123 ± 0.02	0.243 ± 0.035	0.0879 ± 0.0095	0.0841 ± 0.034	0.182 ± 0.011	0.152 ± 0.01
PIHILTHTYIGR	0.669 ± 0.028	0.7695 ± 0.00066	0.636 ± 0.025	0.719 ± 0.013	0.643 ± 0.014	0.664 ± 0.012	0.707 ± 0.013	0.738 ± 0.018
PILRGRPTPAIL	0.691 ± 0.031	0.731 ± 0.013	0.662 ± 0.018	0.7426 ± 0.0046	0.681 ± 0.018	0.668 ± 0.023	0.7026 ± 0.0044	0.708 ± 0.021
PLLVVPVPRALY	0.675 ± 0.082	0.72 ± 0.0074	0.626 ± 0.011	0.733 ± 0.018	0.242 ± 0.0057	0.281 ± 0.013	0.491 ± 0.038	0.382 ± 0.021
PLYFSVFSLLFL	0.522 ± 0.03	0.556 ± 0.048	0.489 ± 0.015	0.631 ± 0.025	0.478 ± 0.026	0.41 ± 0.021	0.539 ± 0.013	0.473 ± 0.012
PPLLLFLSLAFL	0.322 ± 0.02	0.407 ± 0.012	0.285 ± 0.027	0.449 ± 0.015	0.239 ± 0.012	0.271 ± 0.028	0.441 ± 0.009	0.381 ± 0.054
PPPLPPPSPSRP	0.66 ± 0.024	0.7072 ± 0.0012	0.677 ± 0.02	0.7025 ± 0.0061	0.695 ± 0.026	0.6727 ± 0.0031	0.68331 ± 0.00024	0.421 ± 0.0055
PPPPPPLPSSFP	0.679 ± 0.024	0.749 ± 0.0084	0.645 ± 0.009	0.7094 ± 0.0028	0.666 ± 0.033	0.655 ± 0.01	0.7063 ± 0.0068	0.449 ± 0.026
PPPYPPPPARSL	0.6336 ± 0.00079	0.6951 ± 0.0027	0.673 ± 0.016	0.6884 ± 0.0056	0.6825 ± 0.0033	0.689 ± 0.022	0.6823 ± 0.0034	0.5 ± 0.014
PPRPLHPPCRPP	0.64 ± 0.021	0.6975 ± 0.00072	0.66 ± 0.033	0.6943 ± 0.0015	0.659 ± 0.024	0.657 ± 0.013	0.688 ± 0.011	0.702 ± 0.013
PPSPPLPPPSPF	0.671 ± 0.013	0.773 ± 0.019	0.69 ± 0.0097	0.742 ± 0.041	0.694 ± 0.036	0.67 ± 0.018	0.707 ± 0.016	0.34 ± 0.046
PPSPPPPPPSPF	0.695 ± 0.031	0.7371 ± 0.0055	0.683 ± 0.0043	0.7378 ± 0.0022	0.721 ± 0.031	0.679 ± 0.033	0.719 ± 0.034	0.304 ± 0.025
PRHERPPRDNGH	0.674 ± 0.041	0.72232 ± 0.00022	0.655 ± 0.011	0.73 ± 0.013	0.6522 ± 0.0063	0.654 ± 0.025	0.702 ± 0.022	0.709 ± 0.025
PRPSPPLPPPSS	0.665 ± 0.082	0.712 ± 0.011	0.643 ± 0.027	0.739 ± 0.019	0.673 ± 0.032	0.677 ± 0.021	0.688 ± 0.017	0.4726 ± 0.0028
PRRVTVPGVPPL	0.672 ± 0.018	0.736 ± 0.033	0.669 ± 0.035	0.737 ± 0.014	0.643 ± 0.01	0.66 ± 0.01	0.7039 ± 0.0025	0.71 ± 0.014
PRSLHVLSRFLP	0.692 ± 0.06	0.7371 ± 0.0014	0.651 ± 0.017	0.763 ± 0.037	0.599 ± 0.048	0.606 ± 0.031	0.712 ± 0.02	0.691 ± 0.018
PSRRLRHFATSP	0.623 ± 0.058	0.68 ± 0.021	0.736 ± 0.037	0.6646 ± 0.0047	0.747 ± 0.038	0.703 ± 0.0095	0.6412 ± 0.00013	0.741 ± 0.023
PTFSPSLPPPRS	0.632 ± 0.03	0.715 ± 0.012	0.678 ± 0.027	0.703 ± 0.02	0.712 ± 0.027	0.694 ± 0.022	0.67608 ± 0.00018	0.3693 ± 0.0019
PVTAVYFVLYIW	0.134 ± 0.0025	0.231 ± 0.017	0.177 ± 0.032	0.332 ± 0.019	0.143 ± 0.01	0.167 ± 0.026	0.298 ± 0.035	0.251 ± 0.03
PYLSAPLVATLS	0.378 ± 0.014	0.424 ± 0.025	0.274 ± 0.057	0.474 ± 0.0082	0.234 ± 0.012	0.28 ± 0.045	0.426 ± 0.0049	0.3853 ± 0.0035
QDQWINTSLELS	0.677 ± 0.018	0.759 ± 0.0081	0.676 ± 0.039	0.7465 ± 0.0027	0.685 ± 0.015	0.68 ± 0.035	0.711 ± 0.024	0.751 ± 0.056
QLIDVGLLNCAA	0.499 ± 0.044	0.557 ± 0.033	0.435 ± 0.03	0.611 ± 0.052	0.412 ± 0.011	0.45 ± 0.027	0.5616 ± 0.0023	0.498 ± 0.079
QWTVRNQGVMQR	0.699 ± 0.018	0.743 ± 0.0096	0.652 ± 0.012	0.754 ± 0.016	0.65 ± 0.036	0.681 ± 0.051	0.721 ± 0.026	0.73 ± 0.017
QYRLMQKKIVNI	0.644 ± 0.022	0.743 ± 0.048	0.647 ± 0.015	0.718 ± 0.014	0.119 ± 0.013	0.147 ± 0.024	0.253 ± 0.015	0.229 ± 0.059
RAEASFFLPKVG	0.675 ± 0.046	0.711 ± 0.0076	0.668 ± 0.033	0.732 ± 0.016	0.41 ± 0.013	0.446 ± 0.01	0.6398 ± 0.0037	0.435 ± 0.07
RAQQRVKERYIE	0.74 ± 0.046	0.729 ± 0.014	0.669 ± 0.022	0.7311 ± 0.0059	0.517 ± 0.058	0.581 ± 0.067	0.69 ± 0.0077	0.432 ± 0.0045
RCIRRWPYILKL	0.576 ± 0.017	0.667 ± 0.0087	0.615 ± 0.038	0.758 ± 0.059	0.214 ± 0.0092	0.206 ± 0.042	0.285 ± 0.031	0.273 ± 0.019
RCSLFAKQVVSL	0.381 ± 0.032	0.442 ± 0.029	0.451 ± 0.012	0.405 ± 0.0067	0.437 ± 0.021	0.43 ± 0.0057	0.37093 ± 0.00035	0.453 ± 0.074
RERRISRIPCLS	0.594 ± 0.058	0.678 ± 0.01	0.526 ± 0.018	0.6867 ± 0.0014	0.174 ± 0.0033	0.185 ± 0.035	0.362 ± 0.028	0.276 ± 0.057
